According to publication PMC11697363 (Nature Communications, 2025):

Target: T1, GST-Pelota (Arabidopsis thaliana, UniProt Q9ZT87 1-378)
T1 sequence (looked up): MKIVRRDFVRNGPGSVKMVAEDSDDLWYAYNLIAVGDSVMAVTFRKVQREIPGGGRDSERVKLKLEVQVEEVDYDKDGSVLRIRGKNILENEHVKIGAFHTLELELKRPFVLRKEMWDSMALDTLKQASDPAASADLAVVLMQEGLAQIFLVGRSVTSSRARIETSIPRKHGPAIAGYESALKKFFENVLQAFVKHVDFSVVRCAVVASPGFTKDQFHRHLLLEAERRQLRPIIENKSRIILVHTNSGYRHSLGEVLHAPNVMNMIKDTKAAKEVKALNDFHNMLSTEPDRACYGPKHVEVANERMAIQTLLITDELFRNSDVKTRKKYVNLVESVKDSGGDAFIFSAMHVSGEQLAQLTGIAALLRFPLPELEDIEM
Assay: pull-down

B1: MBP-SCE1 (enzyme, Arabidopsis thaliana, UniProt Q42551 1-160, looked up)
chain: MASGIARGRLAEERKSWRKNHPHGFVAKPETGQDGTVNLMVWHCTIPGKAGTDWEGGFFPLTMHFSEDYPSKPPKCKFPQGFFHPNVYPSGTVCLSILNEDYGWRPAITVKQILVGIQDLLDTPNPADPAQTDGYHLFCQDPVEYKKRVKLQSKQYPALV
binding result: binds
